B1: ZNF263 (parent)
chain: FGGNPRFLSLHRAHLGEEAHKCLE

Variants of: B1
Assay: protein stability index of a GFP-peptide fusion (GPS, HEK-293T) (PSI 1-6); higher = more stable
Details: c terminus: a fixed tail appended
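Further: lentivirally expressed fusions sorted by FACS into six bins by GFP to DsRed ratio, PSI derived from sequencing read proportions per bin multiplied by bin number.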

Compared with FIGNPRFLSLHRAHLGEEAHKCLE [G2I], FKGNPRFLSLHRAHLGEEAHKCLE [G2K] is higher in protein stability index: 1.64 for the first, 2.87 for the second.

Compared with FTGNPRFLSLHRAHLGEEAHKCLE [G2T], FNGNPRFLSLHRAHLGEEAHKCLE [G2N] is lower in protein stability index: 3.64 for the first, 2.22 for the second.

Going from FAGNPRFLSLHRAHLGEEAHKCLE [G2A] to FMGNPRFLSLHRAHLGEEAHKCLE [G2M], the protein stability index rises from 1.59 to 2.35.

First: FDGNPRFLSLHRAHLGEEAHKCLE [G2D]
Second: FLGNPRFLSLHRAHLGEEAHKCLE [G2L]
The protein stability index of the first is higher: 3.68 for the first, 2.25 for the second.

Going from FEGNPRFLSLHRAHLGEEAHKCLE [G2E] to FFGNPRFLSLHRAHLGEEAHKCLE [G2F], the protein stability index falls from 3.12 to 2.55.

Compared with FHGNPRFLSLHRAHLGEEAHKCLE [G2H], FRGNPRFLSLHRAHLGEEAHKCLE [G2R] is higher in protein stability index: 1.79 for the first, 3.66 for the second.

First: FQGNPRFLSLHRAHLGEEAHKCLE [G2Q]
Second: FWGNPRFLSLHRAHLGEEAHKCLE [G2W]
The protein stability index of the first is lower: 1.38 for the first, 2.24 for the second.

Compared with FCGNPRFLSLHRAHLGEEAHKCLE [G2C], FPGNPRFLSLHRAHLGEEAHKCLE [G2P] is higher in protein stability index: 1.61 for the first, 2.13 for the second.

Going from FSGNPRFLSLHRAHLGEEAHKCLE [G2S] to FYGNPRFLSLHRAHLGEEAHKCLE [G2Y], the protein stability index rises from 1.74 to 2.32.

Compared with FGGNARFLSLHRAHLGEEAHKCLE [P5A], FGGNYRFLSLHRAHLGEEAHKCLE [P5Y] is lower in protein stability index: 2.03 for the first, 1.57 for the second.

First: FGGNERFLSLHRAHLGEEAHKCLE [P5E]
Second: FGGNFRFLSLHRAHLGEEAHKCLE [P5F]
The protein stability index of the first is higher: 2.19 for the first, 1.62 for the second.

Compared with FGGNKRFLSLHRAHLGEEAHKCLE [P5K], FGGNHRFLSLHRAHLGEEAHKCLE [P5H] is higher in protein stability index: 1.56 for the first, 2.17 for the second.

Going from FGGNIRFLSLHRAHLGEEAHKCLE [P5I] to FGGNVRFLSLHRAHLGEEAHKCLE [P5V], the protein stability index rises from 1.52 to 1.96.

Going from FGGNLRFLSLHRAHLGEEAHKCLE [P5L] to FGGNMRFLSLHRAHLGEEAHKCLE [P5M], the protein stability index rises from 1.69 to 1.96.

First: FGGNRRFLSLHRAHLGEEAHKCLE [P5R]
Second: FGGNQRFLSLHRAHLGEEAHKCLE [P5Q]
The protein stability index of the first is lower: 2.01 for the first, 2.2 for the second.

Going from FGGNNRFLSLHRAHLGEEAHKCLE [P5N] to FGGNWRFLSLHRAHLGEEAHKCLE [P5W], the protein stability index falls from 3.16 to 1.96.

Compared with FGGNSRFLSLHRAHLGEEAHKCLE [P5S], FGGNTRFLSLHRAHLGEEAHKCLE [P5T] is higher in protein stability index: 1.93 for the first, 2.17 for the second.

Going from FGGNGRFLSLHRAHLGEEAHKCLE [P5G] to FGGNCRFLSLHRAHLGEEAHKCLE [P5C], the protein stability index falls from 1.64 to 1.49.

Compared with FGGNDRFLSLHRAHLGEEAHKCLE [P5D], FGGNPRFASLHRAHLGEEAHKCLE [L8A] is higher in protein stability index: 1.35 for the first, 2.43 for the second.

Going from FGGNPRYLSLHRAHLGEEAHKCLE [F7Y] to FGGNPRCLSLHRAHLGEEAHKCLE [F7C], the protein stability index rises from 2.04 to 2.31.

First: FGGNPRTLSLHRAHLGEEAHKCLE [F7T]
Second: FGGNPRGLSLHRAHLGEEAHKCLE [F7G]
The protein stability index of the first is higher: 3.22 for the first, 2.63 for the second.

Going from FGGNPRQLSLHRAHLGEEAHKCLE [F7Q] to FGGNPRNLSLHRAHLGEEAHKCLE [F7N], the protein stability index falls from 3.49 to 3.42.

Going from FGGNPRKLSLHRAHLGEEAHKCLE [F7K] to FGGNPRMLSLHRAHLGEEAHKCLE [F7M], the protein stability index falls from 3.58 to 2.42.

Going from FGGNPRHLSLHRAHLGEEAHKCLE [F7H] to FGGNPRILSLHRAHLGEEAHKCLE [F7I], the protein stability index falls from 2.56 to 2.19.

Compared with FGGNPRVLSLHRAHLGEEAHKCLE [F7V], FGGNPRSLSLHRAHLGEEAHKCLE [F7S] is higher in protein stability index: 2.64 for the first, 3.57 for the second.

Going from FGGNPRPLSLHRAHLGEEAHKCLE [F7P] to FGGNPRELSLHRAHLGEEAHKCLE [F7E], the protein stability index rises from 2.71 to 4.

Compared with FGGNPRALSLHRAHLGEEAHKCLE [F7A], FGGNPRDLSLHRAHLGEEAHKCLE [F7D] is higher in protein stability index: 2.79 for the first, 3.51 for the second.

Going from FGGNPRRLSLHRAHLGEEAHKCLE [F7R] to FGGNPRLLSLHRAHLGEEAHKCLE [F7L], the protein stability index falls from 3.15 to 2.56.

Compared with FGGNPDFLSLHRAHLGEEAHKCLE [R6D], FGGNPFFLSLHRAHLGEEAHKCLE [R6F] is higher in protein stability index: 1.83 for the first, 2.25 for the second.

First: FGGNPGFLSLHRAHLGEEAHKCLE [R6G]
Second: FGGNPWFLSLHRAHLGEEAHKCLE [R6W]
The protein stability index of the first is lower: 1.74 for the first, 5.27 for the second.

First: FGGNPIFLSLHRAHLGEEAHKCLE [R6I]
Second: FGGNPNFLSLHRAHLGEEAHKCLE [R6N]
The protein stability index of the first is higher: 2.58 for the first, 1.89 for the second.

Compared with FGGNPCFLSLHRAHLGEEAHKCLE [R6C], FGGNPQFLSLHRAHLGEEAHKCLE [R6Q] is lower in protein stability index: 3.09 for the first, 1.82 for the second.

First: FGGNPTFLSLHRAHLGEEAHKCLE [R6T]
Second: FGGNPHFLSLHRAHLGEEAHKCLE [R6H]
The protein stability index of the first is higher: 2.89 for the first, 2.37 for the second.

Going from FGGNPKFLSLHRAHLGEEAHKCLE [R6K] to FGGNPSFLSLHRAHLGEEAHKCLE [R6S], the protein stability index falls from 2.77 to 1.79.

First: FGGNPAFLSLHRAHLGEEAHKCLE [R6A]
Second: FGGNPLFLSLHRAHLGEEAHKCLE [R6L]
The protein stability index of the first is higher: 3.22 for the first, 2.62 for the second.

Going from FGGNPPFLSLHRAHLGEEAHKCLE [R6P] to FGGNPMFLSLHRAHLGEEAHKCLE [R6M], the protein stability index falls from 2.73 to 2.5.

Compared with FGGNPEFLSLHRAHLGEEAHKCLE [R6E], FGGNPVFLSLHRAHLGEEAHKCLE [R6V] is higher in protein stability index: 1.3 for the first, 3.33 for the second.

First: FGMNPRFLSLHRAHLGEEAHKCLE [G3M]
Second: FGWNPRFLSLHRAHLGEEAHKCLE [G3W]
The protein stability index of the first is lower: 2.05 for the first, 2.14 for the second.

First: FGENPRFLSLHRAHLGEEAHKCLE [G3E]
Second: FGSNPRFLSLHRAHLGEEAHKCLE [G3S]
The protein stability index of the first is lower: 2.16 for the first, 2.25 for the second.

Going from FGPNPRFLSLHRAHLGEEAHKCLE [G3P] to FGQNPRFLSLHRAHLGEEAHKCLE [G3Q], the protein stability index falls from 2.13 to 1.53.

First: FGHNPRFLSLHRAHLGEEAHKCLE [G3H]
Second: FGINPRFLSLHRAHLGEEAHKCLE [G3I]
The protein stability index of the first is lower: 2.51 for the first, 3.04 for the second.

Going from FGDNPRFLSLHRAHLGEEAHKCLE [G3D] to FGVNPRFLSLHRAHLGEEAHKCLE [G3V], the protein stability index falls from 3.36 to 2.83.

First: FGKNPRFLSLHRAHLGEEAHKCLE [G3K]
Second: FGYNPRFLSLHRAHLGEEAHKCLE [G3Y]
The protein stability index of the first is higher: 2.36 for the first, 1.78 for the second.

Going from FGANPRFLSLHRAHLGEEAHKCLE [G3A] to FGCNPRFLSLHRAHLGEEAHKCLE [G3C], the protein stability index rises from 1.91 to 2.

Compared with FGTNPRFLSLHRAHLGEEAHKCLE [G3T], FGFNPRFLSLHRAHLGEEAHKCLE [G3F] is higher in protein stability index: 2.17 for the first, 2.69 for the second.

Compared with FGRNPRFLSLHRAHLGEEAHKCLE [G3R], FGLNPRFLSLHRAHLGEEAHKCLE [G3L] is higher in protein stability index: 2.48 for the first, 2.5 for the second.

Compared with FGNNPRFLSLHRAHLGEEAHKCLE [G3N], PGGNPRFLSLHRAHLGEEAHKCLE [F1P] is higher in protein stability index: 2.24 for the first, 3.7 for the second.
